{"source": "paper PMC10920075", "about": "(Nature structural & molecular biology, 2023)", "target": "the molecule itself", "experiment": "cryo-EM structure"}
{"protein": "DNA polymerase γ accessory subunit PolγB (natural protein, human, UniProt Q9UHN1 26-485, looked up) DAGQPELLTERSSPKGGHVKSHAELEGNGEHPEAPGSGEGSEALLEICQRRHFLSGSKQQLSRDSLLSGCHPGFGPLGVELRKNLAAEWWTSVVVFREQVFPVDALHHKPGPLLPGDSAFRLVSAETLREILQDKELSKEQLVAFLENVLKTSGKLRENLLHGALEHYVNCLDLVNKRLPYGLAQIGVCFHPVFDTKQIRNGVKSIGEKTEASLVWFTPPRTSNQWLDFWLRHRLQWWRKFAMSPSNFSSSDCQDEEGRKGNKLYYNFPWGKELIETLWNLGDHELLHMYPGNVSKLHGRDGRKNVVPCVLSVNGDLDRGMLAYLYDSFQLTENSFTRKKNLHRKVLKLHPCLAPIKVALDVGRGPTLELRQVCQGLFNELLENGISVWPGYLETMQSSLEQLYSKYDEMSILFTVLVTETTLENGLIHLRSRDTTMKEMMHISKLKDFLIKYISSAKNV", "values": [{"measurement": "stoichiometry N", "value": 2}]}
